Test results taken from patent publication US20240342244A1, “Isthmin Protein Therapeutics for the Treatment of Non-Alcoholic Fatty Liver Disease” (The Board of Trustees of the Leland Stanford Junior …, priority 2021, published 2024).

Tests used:
[1] = tested on: pAKT^S473; experiment: pAKT S473 western blot in C2C12 skeletal muscle cells; assay type: cell-based; conditions: 100 nM, 5 min
Method: (§1) Western blots and molecular analyses. For western blotting, homogenized tissues or whole-cell lysates, samples were lysed in RIPA buffer containing protease inhibitor cocktail (Roche) and phosphatase inhibitor cocktail (Roche). Cell lysates were centrifuged at 14,000×g for 15 min and supernatants were prepared in 4×LDS Sample Buffer (Invitrogen) and separated by SDS-PAGE and transferred to Immobilon 0.45 μm membranes (Millipore). For Western blotting of plasma samples, 1 μl of plasma was prepared in 2× sample buffer (Invitrogen) with reducing agent, boiled, and analyzed using Western blot against indicated antibody. Protein kinase array (R&D systems ARY003B) was performed according to the manufacturers' description. All antibodies used in this paper are described in STAR methods.

[2] = tested on: pAKTS473; experiment: In vivo pAKT S473 signaling in tissues after I.V. injection in DIO mice; design: species or system mouse
Method: as §1

[3] = tested on: AML12 hepatocytes; experiment: Lipogenesis assay (3H-acetate incorporation into lipids) in AML12 hepatocytes; assay type: cell-based, mouse; conditions: 24 h
Method: Lipogenesis Assay. Primary hepatocytes or AML12 hepatocytes were washed twice with warm PBS and starved in serum-free DMEM overnight. Indicated concentrations of insulin with or without ISM1 were added at the same time. After 24 h, a mixture of 10 μM cold acetate and 2 μCi [3H]-Acetate (#NET003H005MC, PerkinElmer) was added to each well and cells were incubated for another 4 hr. Cells were washed with PBS twice and lysed using 0.1 N hydrogen chloride. Lipids were extracted by 2:1 chloroform-methanol (v/v). After centrifugation at 3000×g for 10 min, the lower phase was transferred to scintillation vials and radioactivity was measured by liquid scintillation counting.

[4] = tested on: srebp1c; experiment: Lipogenic gene and SREBP-1c protein expression in primary adipocytes; assay type: cell-based, mouse
Method: Gene expression analysis. Total RNA from cultured cells or tissues was isolated using TRIzol (Thermo Fischer Scientific) and Rneasy mini kits (QIAGEN). RNA was reverse transcribed using the ABI high capacity cDNA synthesis kit. For qRT-PCR analysis, cDNA, primers and SYBR-green fluorescent dye (ABI) were used. Relative mRNA expression was determined by normalization with Cyclophilin levels using the ΔΔCt method.
as §1

[5] = tested on: pAKT^S473; experiment: pAKT S473 signaling in 3T3-F442A cells (phosphokinase array, western blot); assay type: cell-based
Method: as §1

[6] = tested on: pS6^S235/S236; experiment: Acute and long-term signaling in AML12 hepatocytes (western blot); assay type: cell-based, mouse
Method: as §1

[7] = tested on: ISM1-KO mice; experiment: In vivo 2-deoxy-3H-glucose uptake in ISM1-KO mice treated with ISM1 protein; design: species or system mouse; conditions: 5 mg/kg ISM1 protein for two days; male ISM1-KO mice
Method: In vivo glucose uptake. Mice were fasted for 1 h and injected I.P. with 3H-2-deoxyglucose (3H-2-DOG) at 100 uCi/kg with or without 0.75 U/kg insulin in a total volume of 120 ul per mouse. After 30 min, mice were euthanized. Blood was collected by cardiac puncture and subsequently centrifuged to collect serum. Wet tissue weights were recorded then homogenized in 1% SDS for liquid scintillation counting. Data are expressed as CPM/mg wet weight (fold change over control).

[8] = tested on: DIO mice; experiment: Therapeutic ISM1, Metformin or combined administration for 21 days in DIO mice; assay type: in vivo, mouse; conditions: daily for 21 days; compared with vehicle
Method: Therapeutic ISM1 recombinant protein administration in vivo. All pharmacologic studies using recombinant ISM1 protein were performed in mice with established diet-induced obesity or non-alcoholic fatty liver disease (NAFLD). For all experiments, male C57BL/6J mice purchased from Jax were fed either a high-fat diet (#D12492, Research Diets) or a NAFLD diet (#D09100310, Research Diets) prior to ISM1 protein injections. In all experiments, mice were mock injected with saline for three days prior to protein or drug injections to prevent stress-induced weight loss. Mice were I.P. injected with vehicle (saline) or indicated doses of ISM1 protein diluted in saline. For the 14-day experiments in NAFLD mice, 7-weeks old mice were fed with NAFLD diet for 3 weeks and then mock injected with saline for 3 days prior to protein injections. The induction of lipid accumulation with NAFLD diet was verified by the significant increase in hepatic lipid levels compared with mice on chow diet at the same time point. NAFLD mice were then daily I.P. injected with either vehicle (saline containing 5% DMSO and 10% Kolliphor) or indicated doses of ISM1 protein (500 μg/kg or 5 mg/kg) or with FXR agonist (30 mg/kg, GW4064, Sigma-Aldrich, #G5172) diluted in vehicle (saline containing 5% DMSO and 10% Kolliphor). For the 21-day experiments in HFD mice, mice were mock injected with saline for three days prior to protein injections. Mice were then daily I.P. injected with either vehicle (saline) or 5 mg/kg of ISM1 protein diluted in saline. Metformin (100 mg/kg, Sigma, #317240) was diluted in saline and daily administered by oral gavage. All groups received control injections by I.P. and oral gavage. At the end of the experiments, mice and tissue weights were recorded. Tissues and plasma were collected and frozen for further analyses.
Glucose tolerance and insulin tolerance tests. For glucose tolerance tests, mice were fasted overnight and I.P. injected with glucose at 2 g/kg body weight. Blood glucose levels were measured at 0, 15, 30, 45, 60, 90 and 120 mins. For insulin tolerance tests, mice were fasted for 2 h, and I.P. injected with 0.75 U/kg insulin. Blood glucose levels were measured at 0, 15, 30, 45, 60, 90 and 120 mins.

[9] = insulin 1 nM up to 100 nM with 25 nM or 50 nM ISM1

B1: ISM1: recombinant mouse ISM1 protein with a C-terminal myc-his tag generated in mammalian HEK 293 Expi cells (protein, UniProt A2ATD1 30-454, looked up)
Isthmin-1: SDRQDAAAGNNNLNLESDSTSETSFPLSKEAPEEHQVVHQPFPRQRFPPETGHPSLQRDGPRSFLLDLPNFPDLSKADINGQNPNIQVTIEVVDGPDSEAEKDQHPENKPSWSLPAPDWRAWWQRSLSLARTNSGDQDDKYDSTSDDSNFLSVPRGWDRPAPGHRTFETKEQPEYDSTDGEGDWSLWSVCSVTCGNGNQKRTRSCGYACIATESRTCDRPNCPGIEDTFRTAATEVSLLAGSEEFNATKLFEVDMDSCERWMSCKSEFLKKYMHKVINDLPSCPCSYPTEVAYSTADIFDRIKRKDFRWKDASGPKEKLEIYKPTARYCIRSMLSLESTTLAAQHCCYGDNMQLITRGKGAGTPNLISTEFSAELHYKVDVLPWIICKGDWSRYNEARPPNNGQKCTESPSDEDYIKQFQEAREY
modifications: C-terminal myc-His tag
notes: recombinant mouse ISM1 protein with a C-terminal myc-his tag generated in mammalian HEK 293 Expi cells
With B1 the “pAKT^S473 induction” value [1] was “induced pAKT^S473”, the “pAKTS473 signaling in BAT and liver” value ([2]; 10 mg/kg I.V., 10 min time point) was “transient inductions” and the “pAKTS473 signaling in iWAT and skeletal muscle” value ([2]; 10 mg/kg I.V., DIO mice) was “activates pAKTS473 signaling at 30 and 60 min”. For the same molecule, the “dose inducing the highest pAKTS473 response” value ([2]; doses ranging from 0.1 mg/kg to 10 mg/kg, iWAT) was 5 mg/kg, the “lipogenesis at supraphysiological insulin” value ([3]; 50 nM ISM1 in presence of 200 nM insulin) was “sufficient to reduce lipogenesis” and the insulin-induced lipogenesis ([3]; 50 and 100 nM ISM1 with 50 nM insulin) was “reverse the insulin-induced lipogenesis dose-dependently”. For the same molecule, the “cleaved SREBP-1c protein levels” value ([4]; insulin-stimulated conditions) was “potently reduces the cleaved SREBP-1c protein levels”, the “srebp1c, acc, fas and ChREBPβ gene expression” value ([4]; insulin-stimulated conditions) was “suppressing srebp1c and the lipogenesis target genes acc, fas, and ChREBPβ” and the “srebp1c expression under basal conditions” value ([4]; primary adipocytes) was “no induction”. The “pAKT^S473 bioactivity compared with commercially available ISM1 protein (R&D systems)” value ([5]; 100 nM, 5 min) was “comparable bioactivities”, the “top hit of phosphokinase array (43 proteins)” value ([5]; 100 nM, 5 min) was “phosphorylated protein kinase B (PKB)/AKT at S473” and the “dose at which dose-dependent increase in pAKT^S473 phosphorylation starts” value ([5]; increasing doses, 5 min) was 50 nM. The “AKT activity of ISM1 combined with insulin” value [5, 9] was “additional effect”, the “potentiation of insulin on AKT activity” value [5, 9] was “no evidence of potentiation” and the “pS6^S235/S236 after long-term treatment” value ([6]; 24 h treatment) was “induces hyperactivation of pS6^S235/S236”. The “acute signaling added to insulin” value ([6]; insulin 1 nM up to 100 nM with 25 nM or 50 nM ISM1, 5 min) was “do not result in any additional signaling changes”, the “glucose uptake in BAT” value [7] was “increase glucose uptake” and the “glucose uptake in iWAT” value [7] was “trending increase”. The “glucose uptake in liver” value [7] was “no hepatic glucose uptake induction”, the “glucose uptake in skeletal muscle” value [7] was “increase glucose uptake” and the fasting blood glucose [8] was “lower”. For the same molecule, the “glucose tolerance (GTT)” value [8] was “comparable effects on improving glucose tolerance”.
